Assay results reported in US20260008815A1, “CYCLIC PEPTIDE OR SALT THEREOF, AND USES THEREOF” (FUJIFILM Corporation, priority 2023, published 2026).
Numbered stars: 1 amine (or outer) side, 2 acyl side, 3 side chain; on linkers, the order of the positions; unused ones are H or OH. Bridge positions count the residues as written; N and C are the ends. Ends that are not written are not given here. acetyl = acetyl (haloacetyl before ring closure) on the side-chain amine, O=C(C[*:1])[*:2]; COCH2 = acetyl group that carries the bridge

The substances below were run against T1, Recombinant Human FGFR2 alpha (IIIc) Fc Chimera Protein (Homo sapiens, UniProt P21802) (assay: ELISA binding affinity of enzymatically synthesized peptide to FGFR). Conditions: ELISA luminescence signal at 10 nmol/L peptide, SEQ ID NO: 47 at 10 nmol/L standardized to 1; enzyme synthesis product.
T1 construct: Fc (chimera); purchased R&D systems 712-FR-050
Method in brief: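 FGFR2 alpha (IIIc) Fc chimera (5 ng/well) was immobilized, and Myc-tagged peptide was bound 3 h at room temperature, then detected with anti-Myc antibody (2 h) and chemiluminescent substrate. Signal was corrected against FGFR-free wells. Score A–D was the luminescence at 10 nmol/L peptide, normalized to cyclic peptide SEQ ID NO: 47.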

T1 sequence (P21802 with tags, fused parts or gaps limits assumed): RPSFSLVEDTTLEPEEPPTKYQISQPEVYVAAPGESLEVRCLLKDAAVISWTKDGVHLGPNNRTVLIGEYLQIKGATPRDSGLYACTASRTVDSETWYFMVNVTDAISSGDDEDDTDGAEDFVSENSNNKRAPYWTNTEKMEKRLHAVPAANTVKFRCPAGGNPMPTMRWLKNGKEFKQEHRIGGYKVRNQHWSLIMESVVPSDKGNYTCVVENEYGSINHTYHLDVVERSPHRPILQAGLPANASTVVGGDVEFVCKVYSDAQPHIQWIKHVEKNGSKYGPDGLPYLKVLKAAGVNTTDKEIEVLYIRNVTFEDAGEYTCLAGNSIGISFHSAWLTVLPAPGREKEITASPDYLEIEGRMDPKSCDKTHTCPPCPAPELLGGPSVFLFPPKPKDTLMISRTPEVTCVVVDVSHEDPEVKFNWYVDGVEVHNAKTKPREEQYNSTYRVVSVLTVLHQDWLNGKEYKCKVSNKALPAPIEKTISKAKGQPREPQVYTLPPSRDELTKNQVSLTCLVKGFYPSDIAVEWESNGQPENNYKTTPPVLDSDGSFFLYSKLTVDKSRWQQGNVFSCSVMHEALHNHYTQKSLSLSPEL

Substance | Evaluation result of binding affinity to FGFR
294 (YCEENYLDPEQYQYFIIFK(COCH2)Y; thioether 2-19) [compound 294] | B (0.5 or more and less than 0.7)
213 (YCEENYLWPEQYQYFIYFK(COCH2)Y; thioether 2-19 (inferred)) [compound 213] | B (0.5 or more and less than 0.7)
299 (YCEENYLDPEQYQYFIQFK(COCH2)Y; thioether 2-19) [compound 299] | A (0.7 or more)
376 (QCIQDLYLYLYFLK(COCH2)T; thioether 2-14 (inferred)) [compound 376] | C (0.1 or more and less than 0.5)
175 (YCEQNYLDPEQYQYFIYFK(COCH2)Y; thioether 2-19 (inferred)) [compound 175] | A (0.7 or more)
47 (KCPQNFINPVQWRYFQHYKN; not fully specified; Description of Artificial Sequence: Cyclic peptide) [compound 47] | A (0.7 or more)
219 (YCEENYLRPEQYQYFIYFK(COCH2)Y; thioether 2-19 (inferred)) [compound 219] | C (0.1 or more and less than 0.5)
102 (QCPQNFINPVQVRYFQHYK(COCH2)N; thioether 2-19 (inferred)) [compound 102] | C (0.1 or more and less than 0.5)
157 (YCYENYLDPEQYQYFIYFK(COCH2)Y; thioether 2-19 (inferred)) [compound 157] | A (0.7 or more)
405 (QCLTQRVYLRQLAYYRLYRK(COCH2)I; thioether 2-20 (inferred)) [compound 405] | C (0.1 or more and less than 0.5)
257 (YCEENYLDPEQYGYFIYFK(COCH2)Y; thioether 2-19 (inferred)) [compound 257] | A (0.7 or more)
415 (YCDWVEVANARQLAYYTLYRKK; Description of Artificial Sequence: Cyclic peptide) [compound 415] | C (0.1 or more and less than 0.5)
431 (CHENYLDPEQYQYFHYFK(COCH2); thioether 1-18 via acetyl) [compound 431] | C (0.1 or more and less than 0.5)
243 (YCEENYLDPWQYQYFIYFK(COCH2)Y; thioether 2-19 (inferred)) [compound 243] | A (0.7 or more)
289 (YCEENYLDPEQYQYFRYFK(COCH2)Y; thioether 2-19) [compound 289] | A (0.7 or more)
364 (QCLQYLYQYLFK(COCH2)I; thioether 2-12) [compound 364] | C (0.1 or more and less than 0.5)
217 (YCEENYLTPEQYQYFIYFK(COCH2)Y; thioether 2-19 (inferred)) [compound 217] | A (0.7 or more)
404 (DCIRPYDQLQLIYQYLYQLK(COCH2)K; thioether 2-20 (inferred)) [compound 404] | C (0.1 or more and less than 0.5)
379 (NCQLYYTYLYLHTLK(COCH2)F; thioether 2-15 (inferred)) [compound 379] | C (0.1 or more and less than 0.5)
136 (GCEENYLDPEQYQYFIYFK(COCH2)Y; thioether 2-19 (inferred)) [compound 136] | A (0.7 or more)
90 (QCPQNFINPVQWRYRQHYK(COCH2)N; thioether 2-19 (inferred)) [compound 90] | C (0.1 or more and less than 0.5)
330 (YCEENYLDPAQYQYFIYFK(COCH2)Y; thioether 2-19 (inferred)) [compound 330] | A (0.7 or more)
271 (YCEENYLDPEQYQIFIYFK(COCH2)Y; thioether 2-19) [compound 271] | C (0.1 or more and less than 0.5)
398 (YCHENYLDPEQHQYFIYFK(COCH2)R; thioether 2-19 (inferred)) [compound 398] | B (0.5 or more and less than 0.7)
424 (VCTQPQQDFELIYQYLYQLAK(COCH2)Q; thioether 2-21 via acetyl) [compound 424] | C (0.1 or more and less than 0.5)
410 (WCQESSNYLAPLQWYFFNWYK(COCH2)T; thioether 2-21 (inferred)) [compound 410] | A (0.7 or more)

Substance | Evaluation result of binding affinity to FGFR
52 (VCNENNWSRSQYHFFLQYKY; Description of Artificial Sequence: Cyclic peptide) [compound 52] | C (0.1 or more and less than 0.5)
67 (KCPQNFINPVQWRYFQHYKA; not fully specified; also: cyclic peptide, ring places not shown) [compound 67] | A (0.7 or more)
285 (YCEENYLDPEQYQYFSYFK(COCH2)Y; thioether 2-19) [compound 285] | A (0.7 or more)
65 (KCPQNFINPVQWRYFAHYK(COCH2)N; thioether 2-19 (inferred)) [compound 65] | A (0.7 or more)
427 (ECDTADYPQEWIQDVYQYLYK(COCH2)R; thioether 2-21 via acetyl) [compound 427] | C (0.1 or more and less than 0.5)
61 (KCPQNFINPAQWRYFQHYK(COCH2)N; thioether 2-19 (inferred)) [compound 61] | A (0.7 or more)
49 (SCQGNWISNTQFRYFIAYK(COCH2)T; thioether 2-19; not fully specified (residue 1); printed as s-(C)-QGNWISNTQFRYFIAY-(K(acetyl))-T) [compound 49] | A (0.7 or more)
262 (YCEENYLDPEQYYYFIYFK(COCH2)Y; thioether 2-19) [compound 262] | A (0.7 or more)
385 (QCAYYHLYQYLHQLK(COCH2)V; thioether 2-15 (inferred)) [compound 385] | B (0.5 or more and less than 0.7)
158 (YCWENYLDPEQYQYFIYFK(COCH2)Y; thioether 2-19 (inferred)) [compound 158] | A (0.7 or more)
74 (ICPQNFINPVQWRYFQHYK(COCH2)N; thioether 2-19 (inferred)) [compound 74] | A (0.7 or more)
350 (YCEENMLDPEQYQYFIYFK(COCH2)Y; thioether 2-19) [compound 350] | A (0.7 or more)
71 (GCPQNFINPVQWRYFQHYK(COCH2)N; thioether 2-19 (inferred)) [compound 71] | A (0.7 or more)
323 (YCAENYLDPEQYQYFIYFK(COCH2)Y; thioether 2-19 (inferred)) [compound 323] | A (0.7 or more)
173 (YCEWNYLDPEQYQYFIYFK(COCH2)Y; thioether 2-19 (inferred)) [compound 173] | A (0.7 or more)
41 (LCGNYITPLQWKYFQTYK(COCH2)W; thioether 2-18 (inferred)) [compound 41] | A (0.7 or more)
371 (DCQLWYLYQYLIVK(COCH2)A; thioether 2-14) [compound 371] | C (0.1 or more and less than 0.5)
152 (YCPENYLDPEQYQYFIYFK(COCH2)Y; thioether 2-19 (inferred)) [compound 152] | A (0.7 or more)
200 (YCEENYNDPEQYQYFIYFK(COCH2)Y; thioether 2-19 (inferred)) [compound 200] | C (0.1 or more and less than 0.5)
98 (QCPQTFINPVQWRYFQHYK(COCH2)N; thioether 2-19) [compound 98] | C (0.1 or more and less than 0.5)
247 (YCEENYLDPTQYQYFIYFK(COCH2)Y; thioether 2-19 (inferred)) [compound 247] | A (0.7 or more)
119 (QCRYFWQYVLERYRVRLPK(COCH2)E; thioether 2-19 (inferred)) [compound 119] | A (0.7 or more)
56 (KCPQAFINPVQWRYFQHYK(COCH2)N; thioether 2-19 (inferred)) [compound 56] | C (0.1 or more and less than 0.5)
189 (YCEENNLDPEQYQYFIYFK(COCH2)Y; thioether 2-19 (inferred)) [compound 189] | B (0.5 or more and less than 0.7)
254 (YCEENYLDPEQFQYFIYFK(COCH2)Y; thioether 2-19 (inferred)) [compound 254] | A (0.7 or more)
387 (RCHHNFHHARQHRFFHHYK(COCH2)R; thioether 2-19 (inferred)) [compound 387] | C (0.1 or more and less than 0.5)
